{"source": "patent US20140178854A1", "key": {"[1]": {"target": "gp70 env protein of amphotropic MLV (4070A envelope), on purified viral particles (amphotropic murine leukemia virus (4070A envelope))", "sequence (P21995 whole entry)": "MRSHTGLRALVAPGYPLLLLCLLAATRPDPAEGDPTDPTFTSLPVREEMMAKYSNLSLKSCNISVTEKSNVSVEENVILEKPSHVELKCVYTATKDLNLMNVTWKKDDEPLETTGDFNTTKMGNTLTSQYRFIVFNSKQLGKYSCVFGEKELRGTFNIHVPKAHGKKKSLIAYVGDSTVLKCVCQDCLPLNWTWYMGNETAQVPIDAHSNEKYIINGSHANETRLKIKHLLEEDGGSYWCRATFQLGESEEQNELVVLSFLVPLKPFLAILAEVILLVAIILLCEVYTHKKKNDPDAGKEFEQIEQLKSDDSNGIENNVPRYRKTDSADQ", "test": "ELISA on plate-bound MLV, dilution factor 781250, Exp074-DTV Plate 1"}, "[2]": {"target": "gp70 env protein of amphotropic MLV (4070A envelope), on purified viral particles (amphotropic murine leukemia virus (4070A envelope))", "test": "ELISA on plate-bound MLV, dilution factor 50, Exp074-DTV Plate 2"}, "[3]": {"target": "gp70 env protein of amphotropic MLV (4070A envelope), on purified viral particles (amphotropic murine leukemia virus (4070A envelope))", "test": "ELISA on plate-bound MLV, dilution factor 250, Exp074-DTV Plate 2"}, "[4]": {"target": "gp70 env protein of amphotropic MLV (4070A envelope), on purified viral particles (amphotropic murine leukemia virus (4070A envelope))", "test": "ELISA on plate-bound MLV, dilution factor 6250, Exp072-DTV Plate 2"}, "[5]": {"target": "gp70 env protein of amphotropic MLV (4070A envelope), on purified viral particles (amphotropic murine leukemia virus (4070A envelope))", "test": "ELISA on plate-bound MLV, dilution factor 781250, Exp122-Ana Plate 2"}, "[6]": {"target": "gp70 env protein of amphotropic MLV (4070A envelope), on purified viral particles (amphotropic murine leukemia virus (4070A envelope))", "test": "ELISA on plate-bound MLV, dilution factor 50, Exp072-DTV Plate 2"}, "[7]": {"target": "gp70 env protein of amphotropic MLV (4070A envelope), on purified viral particles (amphotropic murine leukemia virus (4070A envelope))", "test": "ELISA on plate-bound MLV, dilution factor 781250, inter-assay mean of six experiments"}, "[8]": {"target": "gp70 env protein of amphotropic MLV (4070A envelope), on purified viral particles (amphotropic murine leukemia virus (4070A envelope))", "test": "ELISA on plate-bound MLV, dilution factor 6250, Exp121-Ana Plate 1"}, "[9]": {"target": "gp70 env protein of amphotropic MLV (4070A envelope), on purified viral particles (amphotropic murine leukemia virus (4070A envelope))", "test": "ELISA on plate-bound MLV, dilution factor 1250, Exp121-Ana Plate 1"}, "[10]": {"target": "gp70 env protein of amphotropic MLV (4070A envelope), on purified viral particles (amphotropic murine leukemia virus (4070A envelope))", "test": "ELISA on plate-bound MLV, dilution factor 31250, Exp072-DTV Plate 2"}, "[11]": {"target": "gp70 env protein of amphotropic MLV (4070A envelope), on purified viral particles (amphotropic murine leukemia virus (4070A envelope))", "test": "ELISA on plate-bound MLV, dilution factor 1250, Exp074-DTV Plate 2"}, "[12]": {"target": "gp70 env protein of amphotropic MLV (4070A envelope), on purified viral particles (amphotropic murine leukemia virus (4070A envelope))", "test": "ELISA on plate-bound MLV, dilution factor 6250, Exp074-DTV Plate 1"}, "[13]": {"target": "gp70 env protein of amphotropic MLV (4070A envelope), on purified viral particles (amphotropic murine leukemia virus (4070A envelope))", "test": "ELISA on plate-bound MLV, dilution factor 50, Exp125-Ana Plate 1"}, "[14]": {"target": "gp70 env protein of amphotropic MLV (4070A envelope), on purified viral particles (amphotropic murine leukemia virus (4070A envelope))", "test": "ELISA on plate-bound MLV, dilution factor 250, Exp121-Ana Plate 1"}, "[15]": {"target": "gp70 env protein of amphotropic MLV (4070A envelope), on purified viral particles (amphotropic murine leukemia virus (4070A envelope))", "test": "ELISA on plate-bound MLV, dilution factor 250, inter-assay mean of six experiments"}, "[16]": {"target": "gp70 env protein of amphotropic MLV (4070A envelope), on purified viral particles (amphotropic murine leukemia virus (4070A envelope))", "test": "ELISA on plate-bound MLV, dilution factor 156250, Exp125-Ana Plate 1"}, "[17]": {"target": "gp70 env protein of amphotropic MLV (4070A envelope), on purified viral particles (amphotropic murine leukemia virus (4070A envelope))", "test": "ELISA on plate-bound MLV, dilution factor 31250, Exp072-DTV Plate 1"}, "[18]": {"target": "gp70 env protein of amphotropic MLV (4070A envelope), on purified viral particles (amphotropic murine leukemia virus (4070A envelope))", "test": "ELISA on plate-bound MLV, dilution factor 10, Exp122-Ana Plate 1"}, "[19]": {"target": "gp70 env protein of amphotropic MLV (4070A envelope), on purified viral particles (amphotropic murine leukemia virus (4070A envelope))", "test": "ELISA on plate-bound MLV, dilution factor 781250, Exp125-Ana Plate 1"}, "[20]": {"target": "gp70 env protein of amphotropic MLV (4070A envelope), on purified viral particles (amphotropic murine leukemia virus (4070A envelope))", "test": "ELISA on plate-bound MLV, dilution factor 10, Exp073-DTV Plate 1"}, "[21]": {"target": "gp70 env protein of amphotropic MLV (4070A envelope), on purified viral particles (amphotropic murine leukemia virus (4070A envelope))", "test": "ELISA on plate-bound MLV, dilution factor 31250, Exp122-Ana Plate 1"}, "[22]": {"target": "gp70 env protein of amphotropic MLV (4070A envelope), on purified viral particles (amphotropic murine leukemia virus (4070A envelope))", "test": "ELISA on plate-bound MLV, dilution factor 156250, inter-assay mean of six experiments"}, "[23]": {"target": "gp70 env protein of amphotropic MLV (4070A envelope), on purified viral particles (amphotropic murine leukemia virus (4070A envelope))", "test": "ELISA on plate-bound MLV, dilution factor 1250, Exp073-DTV Plate 2"}, "[24]": {"target": "gp70 env protein of amphotropic MLV (4070A envelope), on purified viral particles (amphotropic murine leukemia virus (4070A envelope))", "test": "ELISA on plate-bound MLV, dilution factor 50, Exp121-Ana Plate 2"}, "[25]": {"target": "gp70 env protein of amphotropic MLV (4070A envelope), on purified viral particles (amphotropic murine leukemia virus (4070A envelope))", "test": "ELISA on plate-bound MLV, dilution factor 50, Exp122-Ana Plate 2"}, "[26]": {"target": "gp70 env protein of amphotropic MLV (4070A envelope), on purified viral particles (amphotropic murine leukemia virus (4070A envelope))", "test": "ELISA on plate-bound MLV, dilution factor 781250, Exp072-DTV Plate 2"}}}
{"substance": "83A25 monoclonal antibody (rat IgG2a, anti-gp70)", "values": [{"measurement": "Mean OD", "setting": "[1]", "value": 0.114, "unit": "OD"}, {"measurement": "Mean OD", "setting": "[2]", "value": 2.14, "unit": "OD"}, {"measurement": "Mean OD", "setting": "[3]", "value": 1.89, "unit": "OD"}, {"measurement": "Mean OD", "setting": "[4]", "value": 0.612, "unit": "OD"}, {"measurement": "Mean OD", "setting": "[5]", "value": 0.141, "unit": "OD"}, {"measurement": "Mean OD", "setting": "[6]", "value": 1.86, "unit": "OD"}, {"measurement": "Mean OD (inter-assay mean)", "setting": "[7]", "value": 0.118, "unit": "OD"}, {"measurement": "Mean OD", "setting": "[8]", "value": 0.903, "unit": "OD"}, {"measurement": "Mean OD", "setting": "[9]", "value": 1.93, "unit": "OD"}, {"measurement": "Mean OD", "setting": "[10]", "value": 0.21, "unit": "OD"}, {"measurement": "Mean OD", "setting": "[11]", "value": 1.39, "unit": "OD"}, {"measurement": "Mean OD", "setting": "[12]", "value": 0.636, "unit": "OD"}, {"measurement": "Mean OD", "setting": "[13]", "value": 1.99, "unit": "OD"}, {"measurement": "Mean OD", "setting": "[14]", "value": 2.37, "unit": "OD"}, {"measurement": "Mean OD (inter-assay mean)", "setting": "[15]", "value": 1.93, "unit": "OD"}, {"measurement": "Mean OD", "setting": "[16]", "value": 0.136, "unit": "OD"}, {"measurement": "Mean OD", "setting": "[17]", "value": 0.202, "unit": "OD"}, {"measurement": "Mean OD", "setting": "[18]", "value": 2.17, "unit": "OD"}, {"measurement": "Mean OD", "setting": "[19]", "value": 0.105, "unit": "OD"}, {"measurement": "Mean OD", "setting": "[20]", "value": 2.43, "unit": "OD"}, {"measurement": "Mean OD", "setting": "[21]", "value": 0.289, "unit": "OD"}, {"measurement": "Mean OD (inter-assay mean)", "setting": "[22]", "value": 0.144, "unit": "OD"}, {"measurement": "Mean OD", "setting": "[23]", "value": 1.61, "unit": "OD"}, {"measurement": "Mean OD", "setting": "[24]", "value": 2.46, "unit": "OD"}, {"measurement": "Mean OD", "setting": "[25]", "value": 1.89, "unit": "OD"}, {"measurement": "Mean OD", "setting": "[26]", "value": 0.104, "unit": "OD"}]}
